Source: patent publication US9957297B2, “Template-fixed peptidomimetics as inhibitors of FPR1” (POLYPHOR AG, priority 2011, dated 2018)
*1 amine or outer side, *2 acyl side, *3 side chain or, on linkers, in order; H or OH if unused. Bridges are numbered along the chain shown (N, C = ends). [ ]: non-standard residue; d: D form. Pro(trans-4-NH2) = O=C([C@@H]1C[C@@H](N[*:3])CN1[*:1])[*:2]; Phe(4-CF3) = N[C@@H](Cc1ccc(C(F)(F)F)cc1)C(=O)O; Trp(5-OH) = N[C@@H](Cc1c[nH]c2ccc(O)cc12)C(=O)O; Pro(4S-NH2) = N[C@@H]1CN[C@H](C(=O)O)C1; Dab = NCC[C@H](N)C(=O)O; Dap = NC[C@H](N)C(=O)O

T1: Formyl-Peptide Receptor 1 (UniProt P21462 1-350, limits assumed)
T1 sequence (looked up): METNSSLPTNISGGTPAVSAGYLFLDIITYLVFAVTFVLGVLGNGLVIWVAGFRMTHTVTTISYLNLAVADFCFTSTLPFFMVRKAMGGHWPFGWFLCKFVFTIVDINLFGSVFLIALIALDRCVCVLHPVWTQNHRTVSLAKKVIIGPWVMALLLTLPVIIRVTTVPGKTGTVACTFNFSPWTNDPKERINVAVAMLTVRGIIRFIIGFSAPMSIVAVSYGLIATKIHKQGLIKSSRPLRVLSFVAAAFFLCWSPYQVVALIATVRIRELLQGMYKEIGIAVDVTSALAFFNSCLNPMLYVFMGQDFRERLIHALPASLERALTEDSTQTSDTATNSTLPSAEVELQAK


These binders were tested against T1, Formyl-Peptide Receptor 1 (assay: cell-based or functional assay).

Row | Binder | β-Arrestin IC50 [µM]
1 | cyclo(YHKCWG[dP]WTICYEK[dP]K) (disulfide 4-11; SMILES CC[C@H](C)[C@@H]1NC(=O)[C@H]([C@@H](C)O)NC(=O)[C@H](Cc2c[nH]c3ccccc23)NC(=O)[C@H]2CCCN2C(=O)CNC(=O)[C@H](Cc2c[nH]c3ccccc23)NC(=O)[C@@H]2CSSC[C@H](NC1=O)C(=O)N[C@@H](Cc1ccc(O)cc1)C(=O)N[C@@H](CCC(=O)O)C(=O)N[C@@H](CCCCN)C(=O)N1CCC[C@@H]1C(=O)N[C@@H](CCCCN)C(=O)N[C@@H](Cc1ccc(O)cc1)C(=O)N[C@@H](Cc1c[nH]cn1)C(=O)N[C@@H](CCCCN)C(=O)N2) [cyclo(-Tyr-His-Lys-Cys-Trp-Gly-^DPro-Trp-Thr-Ile-Cys-Tyr-Glu-Lys-^DPro-Lys-)] | 0.054
2 | cyclo(YHICHG[dP]WTICYEK[dP]P) (disulfide 4-11; SMILES CC[C@H](C)[C@@H]1NC(=O)[C@H](Cc2c[nH]cn2)NC(=O)[C@H](Cc2ccc(O)cc2)NC(=O)[C@@H]2CCCN2C(=O)[C@H]2CCCN2C(=O)[C@H](CCCCN)NC(=O)[C@H](CCC(=O)O)NC(=O)[C@H](Cc2ccc(O)cc2)NC(=O)[C@@H]2CSSC[C@H](NC1=O)C(=O)N[C@@H](Cc1c[nH]cn1)C(=O)NCC(=O)N1CCC[C@@H]1C(=O)N[C@@H](Cc1c[nH]c3ccccc13)C(=O)N[C@@H]([C@@H](C)O)C(=O)N[C@@H]([C@@H](C)CC)C(=O)N2) [cyclo(-Tyr-His-Ile-Cys-His-Gly-^DPro-Trp-Thr-Ile-Cys-Tyr-Glu-Lys-^DPro-Pro-)] | 0.05
3 | cyclo(YHKCHG[dP]WTICYEK[dP]K) (disulfide 4-11; SMILES CC[C@H](C)[C@@H]1NC(=O)[C@H]([C@@H](C)O)NC(=O)[C@H](Cc2c[nH]c3ccccc23)NC(=O)[C@H]2CCCN2C(=O)CNC(=O)[C@H](Cc2c[nH]cn2)NC(=O)[C@@H]2CSSC[C@H](NC1=O)C(=O)N[C@@H](Cc1ccc(O)cc1)C(=O)N[C@@H](CCC(=O)O)C(=O)N[C@@H](CCCCN)C(=O)N1CCC[C@@H]1C(=O)N[C@@H](CCCCN)C(=O)N[C@@H](Cc1ccc(O)cc1)C(=O)N[C@@H](Cc1c[nH]cn1)C(=O)N[C@@H](CCCCN)C(=O)N2) [cyclo(-Tyr-His-Lys-Cys-His-Gly-^DPro-Trp-Thr-Ile-Cys-Tyr-Glu-Lys-^DPro-Lys-)] | 0.109
4 | cyclo(YHKC[Trp(5-OH)]G[dP]WTICYEK[dP]P) (disulfide 4-11) [cyclo(-Tyr-His-Lys-Cys-Trp(5OH)-Gly-^DPro-Trp-Thr-Ile-Cys-Tyr-Glu-Lys-^DPro-Pro-)] | 0.013
5 | cyclo(YH[Dap]CHG[dP]WTICYEK[dP]P) (disulfide 4-11) [cyclo(-Tyr-His-Dap-Cys-His-Gly-^DPro-Trp-Thr-Ile-Cys-Tyr-Glu-Lys-^DPro-Pro-)] | 0.271

Results, then the binder that gave them:

Row | β-Arrestin IC50 [µM] | Binder
6 | 0.53 | cyclo(YHKCHG[dP]WTICYEK[dP][Pro(4S-NH2)]) (disulfide 4-11) [cyclo(-Tyr-His-Lys-Cys-His-Gly-^DPro-Trp-Thr-Ile-Cys-Tyr-Glu-Lys-^DPro-Pro((4S)NH2)-)]
7 | 0.188 | cyclo(YHACWG[dP]WTICYQK[dP]A) (disulfide 4-11; SMILES CC[C@H](C)[C@@H]1NC(=O)[C@H]([C@@H](C)O)NC(=O)[C@H](Cc2c[nH]c3ccccc23)NC(=O)[C@H]2CCCN2C(=O)CNC(=O)[C@H](Cc2c[nH]c3ccccc23)NC(=O)[C@@H]2CSSC[C@H](NC1=O)C(=O)N[C@@H](Cc1ccc(O)cc1)C(=O)N[C@@H](CCC(N)=O)C(=O)N[C@@H](CCCCN)C(=O)N1CCC[C@@H]1C(=O)N[C@@H](C)C(=O)N[C@@H](Cc1ccc(O)cc1)C(=O)N[C@@H](Cc1c[nH]cn1)C(=O)N[C@@H](C)C(=O)N2) [cyclo(-Tyr-His-Ala-Cys-Trp-Gly-^DPro-Trp-Thr-Ile-Cys-Tyr-Gln-Lys-^DPro-Ala-)]
8 | 0.29 | cyclo(YH[Dab]CHG[dP]WTICYEK[dP]P) (disulfide 4-11) [cyclo(-Tyr-His-Dab-Cys-His-Gly-^DPro-Trp-Thr-Ile-Cys-Tyr-Glu-Lys-^DPro-Pro-)]
9 | 0.082 | cyclo(YHKCHG[dP]WTICYEK[dP][Pro(trans-4-NH2)]) (disulfide 4-11; SMILES CC[C@H](C)[C@@H]1NC(=O)[C@H]([C@@H](C)O)NC(=O)[C@H](Cc2c[nH]c3ccccc23)NC(=O)[C@H]2CCCN2C(=O)CNC(=O)[C@H](Cc2c[nH]cn2)NC(=O)[C@@H]2CSSC[C@H](NC1=O)C(=O)N[C@@H](Cc1ccc(O)cc1)C(=O)N[C@@H](CCC(=O)O)C(=O)N[C@@H](CCCCN)C(=O)N1CCC[C@@H]1C(=O)N1C[C@H](N)C[C@H]1C(=O)N[C@@H](Cc1ccc(O)cc1)C(=O)N[C@@H](Cc1c[nH]cn1)C(=O)N[C@@H](CCCCN)C(=O)N2) [cyclo(-Tyr-His-Lys-Cys-His-Gly-^DPro-Trp-Thr-Ile-Cys-Tyr-Glu-Lys-^DPro-Pro((4R)NH2)-)]
10 | 0.114 | cyclo(YHKCHG[dP][Phe(4-CF3)]TICYEK[dP]P) (disulfide 4-11; SMILES CC[C@H](C)[C@@H]1NC(=O)[C@H]([C@@H](C)O)NC(=O)[C@H](Cc2ccc(C(F)(F)F)cc2)NC(=O)[C@H]2CCCN2C(=O)CNC(=O)[C@H](Cc2c[nH]cn2)NC(=O)[C@@H]2CSSC[C@H](NC1=O)C(=O)N[C@@H](Cc1ccc(O)cc1)C(=O)N[C@@H](CCC(=O)O)C(=O)N[C@@H](CCCCN)C(=O)N1CCC[C@@H]1C(=O)N1CCC[C@H]1C(=O)N[C@@H](Cc1ccc(O)cc1)C(=O)N[C@@H](Cc1c[nH]cn1)C(=O)N[C@@H](CCCCN)C(=O)N2) [cyclo(-Tyr-His-Lys-Cys-His-Gly-^DPro-Phe(4CF3)-Thr-Ile-Cys-Tyr-Glu-Lys-^DPro-Pro-)]
